Non-standard residues stand in square brackets, D forms with d. Residues, ends and D or L forms follow the SMILES beside them. ξ: configuration not given here. *: point of attachment. X2 = Cn1cc(C2=C(c3ccc(NC(=O)CCCN4C(=O)CC(*)C4=O)cc3)C(=O)NC2=O)c2ccccc21; X1 = O=C(CCCN1C(=O)CC(*)C1=O)Nc1c(Br)cc(Br)cc1CN[C@H]1CC[C@H](O)CC1; ξC = NC(CS)C(=O)O; ξA = CC(N)C(=O)O
Experiments:
[1] = test system: lysosomal GCase in immortalized B-Lymphoblast cells derived from a Gaucher I patient (GM10870); experiment: Lysosomal GCase activity by flow cytometry with LysoLive fluorogenic GCase substrate; format: cell-based, human; conditions: 48 hours; for lysosomal GCase activity compared to native drug SB216763: 1.0-5.0 uM, FIG. 14; for lysosomal GCase activity, Ambroxol and its targeted derivative: multiple concentrations, FIG. 15
Experimental: Immortalized B-Lymphoblast cells derived from a Gaucher I patient (GM10870, CCR) were incubated overnight in a CO2 incubator at 37° C./5% CO2. Equal numbers of cells (50,000 cells/well) were transferred to individual wells of 96-well tissue culture plates and treated with the native drug NSC 95397 or the organelle targeted NSC 95397 derivatives (M2770, M2771) at multiple concentrations (0.5-10 uM) and incubated at 37° C./5% CO2 for 48 hours. A lysosomal-targeted fluorogenic GCase substrate (MarkerGene™ LysoLive™ Lysosomal β-Glucosidase Assay Kit, Product M2775) was then added to the wells according to the manufacturer's instructions to a final concentration of 5 uM and cells were incubated a further 16 hours. DRAQ7 (dead-cell stain) was then added to the cells to a final concentration of 3 uM and cells immediately analyzed using a BD Accuri C6 flow cytometer, capturing 10000 live cell events and the median fluorescence of the stained cell populations graphed as shown in FIG. 13.
Immortalized B-Lymphoblast cells derived from a Gaucher I patient (GM10870, CCR) were incubated overnight in a CO2 incubator at 37° C./5% CO2. Equal numbers of cells (50,000 cells/well) were transferred to individual wells of 96-well tissue culture plates and treated with native drug SB216763 or the organelle targeted SB216763 derivatives (M2747, M2748) at multiple concentrations (1.0-5.0 uM) and incubated at 37° C./5% CO2 for 48 hours. A lysosomal-targeted fluorogenic GCase substrate (MarkerGene™ LysoLive™ Lysosomal β-Glucosidase Assay Kit, Product M2775) was then added to the wells according to the manufacturer's instructions to a final concentration of 5 uM and cells were incubated a further 16 hours. DRAQ7 (dead-cell stain) was then added to the cells to a final concentration of 3 uM and all cell wells immediately analyzed using a BD Accuri C6 flow cytometer, capturing 10000 live cell events and the median fluorescence of the stained cell populations graphed as shown in FIG. 14.
Immortalized B-lymphoblast cells derived from a Gaucher I patient leukocytes (GM10870, CCR) were incubated overnight in a CO2 incubator at 37° C./5% CO2. Equal numbers of cells (50,000 cells/well) were transferred to individual wells of 96-well tissue culture plates and treated with the native drug Ambroxol or the organelle-targeted Ambroxol derivative (M2781) at the multiple concentrations shown and incubated at 37° C./5% CO2 for 48 hours. Following drug treatment, a lysosomal-targeted fluorogenic GCase substrate (MarkerGene™ LysoLive™ Lysosomal β-Glucosidase Assay Kit, Product M2775) was then added to the wells according to the manufacturer's instructions to a final concentration of 5 uM and cells were incubated a further 16 hours. DRAQ7 (dead-cell stain) was then added to the cells to a final concentration of 3 uM and cells immediately analyzed using a BD Accuri C6 flow cytometer, capturing 10000 live cell events and the median fluorescence of the stained cell populations graphed as shown in FIG. 15.

[2] = test system: Glc-Cer and allied glycolipids in Gaucher patient cells; experiment: TLC analysis of the clearance of excess glycolipids after TPC treatment; format: cell-based, human; conditions: 10 uM final concentration, 3 days, FIG. 9
Experimental: A series of targeted pharmacological chaperone derivatives were compared for their abilities to affect glycolipid biosynthesis by 1D-TLC.
Primary Human Fibroblasts from Gaucher I (F0361999) patients were obtained from Istituto Giannina Gaslini (Genova, Italy). Primary Human Fibroblasts from a healthy donor (AG06173) and Gaucher I (GM00372A) patients were obtained from the Coriell Institute for Medical Research (Camden, N.J.). Cells were cultured in Minimum Essential Medium Eagle supplemented with 10% FCS.
Immortalized B-lymphocytes from healthy donor (GM14643), Gaucher I (GM10870, GM10874), and Gaucher II (GM08752) patients were obtained from the Coriell Institute for Medical Research.
Cell labeling solutions were prepared by diluting substrate stock solutions in the appropriate medium for the cell line (see above) without serum. TPC treatment solutions were prepared by diluting stock solutions in complete media appropriate for the cell line. Cells were treated with either the targeted pharmacological chaperones (10 uM final concentration), miglustat (10 uM) or no drug (control) for 3 days prior to all analyses. For lipid analyses cells were counted on a TC-10 Automated Cell Counter (Bio-Rad, Hercules, Calif.) harvested by centrifugation (800×g, 5 min.) and subjected to one PBS wash (1 mL per sample) and centrifugation as above. […]

CC(C)CC(NC(=O)C(CCCNC(=N)N)NC(=O)C(CCC(N)=O)NC(=O)C(Cc1ccc(O)cc1)NC(=O)C(CC(=O)O)NC(=O)C(CO)NC(=O)C(C)NC(=O)CN)C(=O)NCC(=O)NC(CSC1CC(=O)N(CCCC(=O)Nc2ccc(C3=C(c4cn(C)c5ccccc45)C(=O)NC3=O)cc2)C1=O)C(=O)O (stereo not drawn) [M2748] (H-GASDYQRLGC(X2)-OH; configuration not given here)
lysosomal GCase activity compared to native drug SB216763 [1]: increased lysosomal GCase activity in lysosomes compared to the native drug

CC(=O)NC(CSC1CC(=O)N(CCCC(=O)Nc2ccc(C3=C(c4cn(C)c5ccccc45)C(=O)NC3=O)cc2)C1=O)C(=O)NC(Cc1ccccc1)C(=O)NC(Cc1ccccc1)C(=O)NC(CCCCN)C(=O)NC(CC(=O)O)C(=O)NC(CCC(=O)O)C(=O)NC(CC(C)C)C(=O)O (stereo not drawn) [M2747] (Ac-C(X2)FFKDEL-OH; configuration not given here)
lysosomal GCase activity compared to native drug SB216763 [1]: increased lysosomal GCase activity in lysosomes compared to the native drug

CCCCN1C[C@H](O)[C@@H](O)[C@H](O)[C@H]1CO [miglustat, N-butyl-deoxynojirimycin]
effect on glycolipid biosynthesis / clearance of excess glycolipids (Glc-Cer and allied glycolipids), 1D-TLC [2]: moderate effect

CC(=O)NC(CSC1CC(=O)N(CCCC(=O)Nc2ccc(C3=C(c4cn(C)c5ccccc45)C(=O)NC3=O)cc2)C1=O)C(=O)NCC(=O)NCC(=O)NCC(=O)NCC(=O)NCC(=O)NC(C)C(=O)O (stereo not drawn) [M2749] (Ac-C(X2)GGGGGA-OH; configuration not given here)
lysosomal GCase activity compared to native drug SB216763 [1]: equivalent or reduced lysosomal staining/drug efficacy than native drug

CC(=O)NC(CSC1CC(=O)N(CCCC(=O)Nc2c(Br)cc(Br)cc2CN[C@H]2CC[C@H](O)CC2)C1=O)C(=O)NCC(=O)NCC(=O)NCC(=O)NCC(=O)NCC(=O)NC(C)C(=O)O (stereo partly drawn) [M2781] (Ac-[ξC](X1)GGGGG[ξA]-OH)
lysosomal GCase activity, Ambroxol and its targeted derivative [1]: increased lysosomal GCase activity

Nc1c(Br)cc(Br)cc1CNC1CCC(O)CC1 (stereo not drawn) [Ambroxol, 4-(((2-Amino-3,5-dibromophenyl)methyl)amino)cyclohexanol, reference compound]
lysosomal GCase activity, Ambroxol and its targeted derivative [1]: slightly inhibitory toward lysosomal GCase activity
